In data set [1] the target is Chimeric Synechocystis SPP fused at its C-terminus to the S6PPc domain of Arabidopsis SPP2 (SynSPP+S6PPc), His-tagged, from E. coli (Synechocystis sp. PCC 6803 | Arabidopsis thaliana). Description: SEC; gel filtration of the purified His-tagged proteins; eluted fractions immunoblotted with anti-His antibodies (Fig 7, S1 Fig). In general terms: SEC sorts molecules by how far they enter the pores of the column.

For the next data set, the target named is T1, SynSPP (Synechocystis sp. PCC 6803, UniProt P74325).
T1 construct: gene slr0953; full length, N-terminal His6 tag (pQE-80L), E. coli BL21(DE3)
Description: Pi release (SnCl2-molybdate), specific activity. Format: biochemical. The following applies: 1.25 mM Suc6P; 8 mM MgCl2, pH 7.0, 37 °C.

The next data set addresses T2, S6PP domain of SPP2 (Arabidopsis thaliana, UniProt Q9SJ66).
T2 construct: N-terminal S6PP (HAD) domain only, C-terminal S6PPc domain removed; ends at ...IGHFKL by reverse primer P11; N-terminal His10 tag (pET-19b), E. coli; about 30 kDa monomer
Description: Pi release (SnCl2-molybdate), specific activity. In kind it is biochemical. Particulars: 1.25 mM Suc6P; 8 mM MgCl2, pH 7.0, 37 °C.

The next data set has as its target T3, SPP3b (Arabidopsis thaliana, UniProt Q93XN8).
T3 construct: about 52 kDa subunit, about 90 kDa dimer; cDNA from RIKEN
T3 sequence (Q93XN8 1-423): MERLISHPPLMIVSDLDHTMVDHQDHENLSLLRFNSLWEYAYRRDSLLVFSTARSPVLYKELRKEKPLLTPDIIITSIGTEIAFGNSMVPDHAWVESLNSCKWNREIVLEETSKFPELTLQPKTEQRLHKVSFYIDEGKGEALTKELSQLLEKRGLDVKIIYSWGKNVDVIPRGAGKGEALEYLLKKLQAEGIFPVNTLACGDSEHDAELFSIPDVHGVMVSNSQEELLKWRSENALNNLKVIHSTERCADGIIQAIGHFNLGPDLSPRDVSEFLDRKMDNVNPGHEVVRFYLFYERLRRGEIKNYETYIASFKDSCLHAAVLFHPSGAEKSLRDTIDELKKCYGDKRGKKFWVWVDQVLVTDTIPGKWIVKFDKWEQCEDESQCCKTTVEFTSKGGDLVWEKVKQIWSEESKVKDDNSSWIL
Kind of data set: inhibition of Pi release from Suc6P (SnCl2-molybdate). In kind it is biochemical.

Substrate in data set [2]: O=P(O)(O)OC[C@H]1O[C@@](CO)(O[C@H]2O[C@H](CO)[C@@H](O)[C@H](O)[C@H]2O)[C@@H](O)[C@@H]1O
Kind of data set: Pi release (SnCl2-molybdate), nonlinear regression. Format: biochemical, Arabidopsis thaliana. The following applies: 25 mM HEPES-KOH pH 7.0, 8 mM MgCl2, 37 °C. The source says:
Pi release (SnCl2-molybdate), nonlinear regression on SPP3a

Data set [3] concerns the molecule itself. Kind of data set: SEC; Superose 12 10/300 GL, 25 mM HEPES-KOH pH 7.5, 150 mM KCl, 1 mM PMSF, without Mg2+, 0.4 ml/min; fractions followed by A280 and SPP activity; mass from a calibration curve of standards.
Substrate in data set [4]: O=P(O)(O)OC[C@H]1O[C@@](CO)(O[C@H]2O[C@H](CO)[C@@H](O)[C@H](O)[C@H]2O)[C@@H](O)[C@@H]1O
Description: Pi release (SnCl2-molybdate), nonlinear regression. Format: biochemical, Arabidopsis thaliana. Particulars: 25 mM HEPES-KOH pH 7.0, 8 mM MgCl2, 37 °C. The text has this: Pi release (SnCl2-molybdate), nonlinear regression on SPP2
This is another data set of the same source.

Substrate in data set [5]: O=P(O)(O)OC[C@H]1O[C@@](CO)(O[C@H]2O[C@H](CO)[C@@H](O)[C@H](O)[C@H]2O)[C@@H](O)[C@@H]1O
Description: Pi release (SnCl2-molybdate), nonlinear regression. Format: biochemical, Arabidopsis thaliana. Particulars: 25 mM HEPES-KOH pH 7.0, 8 mM MgCl2, 37 °C. The source says: Pi release (SnCl2-molybdate), nonlinear regression on SPP3b
The source holds these as a separate data set.

T1 sequence (P74325 entry or part of it): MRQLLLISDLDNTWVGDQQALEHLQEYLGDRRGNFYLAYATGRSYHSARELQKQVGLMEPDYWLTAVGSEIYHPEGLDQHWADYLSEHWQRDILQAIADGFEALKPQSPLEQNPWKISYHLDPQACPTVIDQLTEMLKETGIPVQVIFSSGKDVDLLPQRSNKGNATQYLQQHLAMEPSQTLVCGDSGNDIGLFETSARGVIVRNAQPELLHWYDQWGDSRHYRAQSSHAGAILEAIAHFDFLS

As for “Chimeric Synechocystis SPP fused at its C-terminus to the S6PPc domain of Arabidopsis SPP2 (SynSPP+S6PPc), His-tagged, from E. coli (enzyme)”, in data set [1], the stoichiometry N was 2.

Consider `O=P(O)(O)OC[C@H]1O[C@@](CO)(O[C@H]2O[C@H](CO)[C@@H](O)[C@H](O)[C@H]2O)[C@@H](O)[C@@H]1O` [Suc6P], for which the “Pi release (SnCl2-molybdate), specific activity” value at SynSPP is “The activity of each protein or chimera was determined as described in Materials and Methods”; on S6PP domain of SPP2 it was “with an activity significantly lower than the native protein”.

The molecule `OC[C@H]1O[C@@](CO)(O[C@H]2O[C@H](CO)[C@@H](O)[C@H](O)[C@H]2O)[C@@H](O)[C@@H]1O` [sucrose] had a Ki at SPP3b of 24 mM.

B1: Arabidopsis thaliana sucrose-phosphate phosphatase isoform SPP3a, recombinant Nt-Histag (His10-SPP3a, pET-19b) (enzyme, UniProt Q93WU4 1-425, looked up)
chain: MDRLEGPPRLILVADLDCTLVDHDDPENNDLLRFNALWEAHYRHDSLLVYCTGRSFSSYSSLRKKRPLLTPDIAVTSVGSEIVYGGGESTVSDVVWTARLDYKWNRDIVVEETLKFPKLEPQPDKSQEEHKVSFFVGREDAVEIMKVLPGILEERGVDVKLVYSNGYAFDVLPRGAGKQGALTYLLDKLDIEGKQPSNTLVCGDSGNDAELFNISDVYGVMVSNSHEELLQWYEENAKDNPKIFHASERCGAGMIEAIQRFNLGPNVSPRDVMDTENFHGESLNPAHEVVQFYLFYERWRCGEVEKSDKYLQNLKSLSSPLGIFVHPSGVEKPIHEWIDEMENLYGDGKEKKFRIWLDNVTSSHISSDTWLAKFVKHELSEGKVRSCSTKVLLSYKEEKQRLTWMHIHQSWLDESSSDDQEKWIF
notes: Sucrose-phosphate phosphatase SPP3a of Arabidopsis thaliana (At3g54270); amplified from rosette leaf cDNA with primers P7 (start codon) and P8 (stop codon); source: E. coli BL21 (DE3), purified (HisTrap HP, Superose 12); not shown: His10, N-terminal, kept
In the case of B1, in data set [2], the Km was found to be 870 ± 390 µM, the kcat was 0.396 s⁻¹ and the kcat/Km was 454 M⁻¹ s⁻¹. Further, the “stoichiometry N” value in data set [3] was found to be 2.

B2: Arabidopsis thaliana sucrose-phosphate phosphatase isoform SPP2, recombinant Nt-Histag (His10-SPP2, pET-19b) (enzyme, UniProt Q9SJ66 1-422, looked up)
chain: MERLTSPPRLMIVSDLDHTMVDHHDPENLSLLRFNSLWEHAYRHDSLLVFSTGRSPTLYKELRKEKPLLTPDITIMSVGTEITYGNSMVPDHGWVEALNNKWDLGIVKQEASNFPELKLQAETEQRPHKVSFYVEKSKAQEVTKELSQRFLKRGLDVKIIYSGGMDLDILPQGAGKGQALAYLLKKLKTEGKLPVNTLACGDSGNDAELFSIPDVYGVMVSNAQEELLKWHAENAKDNPKVIHAKERCAGGIIQAIGHFKLGPNLSPRDVSDFLEIKVENVNPGHEVVKFFLFYERWRRGEVENSEAYTASLKASVHPGGVFVHPSGTEKSLRDTIDELRKYHGDKQGKKFRVWADQVLATDTTPGTWIVKLDKWEQDGDERRCCTTTVKFTSKEGEGLVWEHVQQTWSKETMVKDDSSWII
notes: Sucrose-phosphate phosphatase SPP2 of Arabidopsis thaliana (At2g35840); cDNA from RIKEN, amplified with primers P5 (start codon) and P6 (stop codon); also called Nt-Histag SPP2; SSP2; source: E. coli BL21 (DE3), purified (HisTrap HP, Superose 12); not shown: His10, N-terminal, kept
For B2, in data set [4], the Km was found to be 730 ± 320 µM, the catalytic constant (kcat) is 67.8 s⁻¹ and the catalytic efficiency (kcat/Km) was 92500 M⁻¹ s⁻¹. Moreover, the “stoichiometry N” value in data set [3] worked out at 2.

B3: Arabidopsis thaliana sucrose-phosphate phosphatase isoform SPP3b, recombinant Nt-Histag (His10-SPP3b, pET-19b) (enzyme, UniProt Q93XN8 1-423, looked up)
chain: MERLISHPPLMIVSDLDHTMVDHQDHENLSLLRFNSLWEYAYRRDSLLVFSTARSPVLYKELRKEKPLLTPDIIITSIGTEIAFGNSMVPDHAWVESLNSCKWNREIVLEETSKFPELTLQPKTEQRLHKVSFYIDEGKGEALTKELSQLLEKRGLDVKIIYSWGKNVDVIPRGAGKGEALEYLLKKLQAEGIFPVNTLACGDSEHDAELFSIPDVHGVMVSNSQEELLKWRSENALNNLKVIHSTERCADGIIQAIGHFNLGPDLSPRDVSEFLDRKMDNVNPGHEVVRFYLFYERLRRGEIKNYETYIASFKDSCLHAAVLFHPSGAEKSLRDTIDELKKCYGDKRGKKFWVWVDQVLVTDTIPGKWIVKFDKWEQCEDESQCCKTTVEFTSKGGDLVWEKVKQIWSEESKVKDDNSSWIL
notes: Sucrose-phosphate phosphatase SPP3b of Arabidopsis thaliana (At3g52340); cDNA from RIKEN, amplified with primers P9 (start codon) and P10 (stop codon); source: E. coli BL21 (DE3), purified (HisTrap HP, Superose 12); not shown: His10, N-terminal, kept
In the case of B3, in data set [5], the Km amounted to 3460 ± 710 µM, the kcat was determined as 3.59 s⁻¹ and the kcat/Km amounted to 1040 M⁻¹ s⁻¹. In data set [3], the “stoichiometry N” value amounted to 2.

Usually stoichiometry N stands for a count of units in the complex or per binding partner. As usually defined, the Ki is the dissociation constant of the complex between target and ligand, obtained from inhibition or displacement. A higher Ki goes with a looser hold on the target. The Km is the substrate concentration at which the rate is half of its maximum. What is called kcat is the number of substrate molecules converted per active site and unit of time at saturation. One may read the kcat/Km as the second-order rate constant that governs catalysis at low substrate concentration.

The values above are taken from article PMC5113954, “Characterization of the Sucrose Phosphate Phosphatase (SPP) Isoforms from Arabidopsis thaliana and Role of the S6PPc Domain in Dimerization” (PLoS ONE, 2016).
